{"source": "the supplement of paper PMC12764529", "note": "± gives the half width of the 95% confidence interval.", "data": [{"test": "folding stability dG unfold from trypsin proteolysis; higher = more stable", "method": "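Folding stability of de novo designed mini-proteins (<80 aa, no Cys; designed by TrROS, TrMRF, ProteinMPNN and the joint model) was measured by cDNA display proteolysis with trypsin and chymotrypsin. Each protease was used at 11 concentrations in a threefold dilution series plus a no-protease condition. K50 was inferred by Bayesian fitting of sequencing counts, and dG unfold was derived against a sequence-predicted unfolded-state K50 (Tsuboyama et al. method). Sequences shown include variable-length N-terminal GS-type padding (SAGGSAGG...) inside a display construct carrying a PA tag. Rows were kept only if the AF2 dimer inter-PAE was >15, to exclude likely homo-oligomers.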", "units": {"folding stability dG unfold": "kcal/mol"}, "values": [{"sequence": "SAGGSAGGSAGGSMVAKELAEKIGAKVEGVEVKPIFDPEGKPVSEELKAKIEVLPPDYPLSAGGSAGGSAGG [r7_650_JUSTAS]", "folding stability dG unfold": "-0.537 ± 0.19"}, {"sequence": "SAGGSAGGSAGGKKKKKKVSINIRGGMSVEEVKGKAQELQSQGDPDVKEVKIHISPNMWSAGGSAGGSAGGS [r10_233_TrROS]", "folding stability dG unfold": "0.33 ± 0.11"}]}, {"test": "folding stability dG unfold (combined trypsin and chymotrypsin); higher = more stable", "in_short": "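Bayesian fitting of sequencing counts gave K50 for each design. Unfolding free energy followed by setting this against a sequence-predicted unfolded-state K50 and a shared folded-state K50, either per protease or with trypsin and chymotrypsin combined. The designs, under 80 residues and lacking cysteine, were digested in a PA-tagged cDNA display format at 11 threefold-diluted protease concentrations and without protease, and only those with AlphaFold2 dimer inter-PAE above 15 were kept.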", "units": {"folding stability dG unfold": "kcal/mol"}, "values": [{"sequence": "SAGGSAGGSAMLKVTVKVPGTSKDYDFNVPESVGKEEAEKRLEEEYPGAEVTEIVEIPGEELSAGGSAGGSA [r18_242_JUSTAS]", "folding stability dG unfold": "-0.469 ± 0.26"}, {"sequence": "SAGGSAGGSPPYIRVKIEFQNPNGQERKFKITIPPDQPLSQAKDIAPDFAKNGYPVRIEDIEISAGGSAGGS [r12_804_TrROS]", "folding stability dG unfold": "< -1"}, {"sequence": "SDDLSTTVTVTTPGGPTLTLTFPSNASVSTSPIDENSIVITFPGYEAVVEIAPGGKPRLKEVSEKEPVDSSA [r9_773_JUSTAS]", "folding stability dG unfold": "< -1"}, {"sequence": "SGSMTPLTVEREVDITVVETRFLPNGGEVKKRRVTVTTTVTLPGGVPVSTQTTTIESPDLSEEEILERLSSA [r9_371_JUSTAS]", "folding stability dG unfold": "-0.752 ± 0.15"}, {"sequence": "SAGGSAGGSAGGSALDRPVPVLVTGSIPLDGKFEDALGAAKAIEEEFAPYGYIVLSDVHVSAGGSAGGSAGG [r17_197_TrMRF]", "folding stability dG unfold": "-0.0552 ± 0.12"}, {"sequence": "SAGMEAEAERIAEELERELPPTYRITSITVTPQPDNTWVAPITIEKVDAEGRVLGPSTVTVTLPPGLGSAGG [r19_28_JUSTAS]", "folding stability dG unfold": "-0.452 ± 0.14"}, {"sequence": "SAGGSAGGDGHPDILNAVFTRTETFYREGDDEPGGEGTREILVVVTGDNPENPELALKEAEEAASAGGSAGG [r6_928_TrMRF]", "folding stability dG unfold": "0.0849 ± 0.18"}, {"sequence": "SAGGSAGGSAGMEDLVTVTETVETTDTLRDEGGTPTGTTTTTTTVTKLLSPEKVAALKEASAGGSAGGSAGG [r11_620_JUSTAS]", "folding stability dG unfold": "-0.85 ± 0.23"}, {"sequence": "SAGGSAGGMTVPASSYEGVPLKVTVSRGDENVSAEEAEVTPLPDGTVVVKLPESLPEDTEVTLESAGGSAGG [r6_630_JUSTAS]", "folding stability dG unfold": "-0.137 ± 0.13"}, {"sequence": "SAGGSAGGMSPDVEVVTVERVITTTEPVSPSLSPEYLKAYPNATKTTTTVTVTVVPKERFEELTSAGGSAGG [r6_831_JUSTAS]", "folding stability dG unfold": "< -1"}, {"sequence": "SAGGSAGGSEPDFVVVDIPFPPDVPLEALVEFARSLPSVVVNLVDEEGRPVSIALPREAVERLASAGGSAGG [r6_791_TrMRF]", "folding stability dG unfold": "< -1"}, {"sequence": "SAGGSAGGSAGGSGSMVVEKVSPEPNVTKTIFFEPPEEGLVITVETLEGDTWSSQIILQSAGGSAGGSAGGS [r4_484_JUSTAS]", "folding stability dG unfold": "-0.0129 ± 0.3"}, {"sequence": "SAGGSPKPIAEAILKELGYPDAIVKNIPIEKLENGIIIIPLEVIYPKNPKKGKPIKRIIKPNEKFASAGGSA [r2_137_TrMRF]", "folding stability dG unfold": "< -1"}, {"sequence": "SAGGSAGGSAGGSSLSTVAPSPSGRLYVELDIDEPVVSPTPIPTGTGPVSGIIVSPVLLSAGGSAGGSAGGS [r10_92_JUSTAS]", "folding stability dG unfold": "< -1"}, {"sequence": "SAGGSAGGSMKVITVPLPDGGTTTYEVEKGKVTITYPPSVTKEIEVPDPSKAIENIETVSYKSSAGGSAGGS [r12_32_JUSTAS]", "folding stability dG unfold": "< -1"}, {"sequence": "SAGGSAGGSASSSVTITNRVTNPDTGLRYITIPSKGERVTLSPDESATIPVPPDAPVSVLGSSAGGSAGGSA [r18_329_JUSTAS]", "folding stability dG unfold": "< -1"}, {"sequence": "SAGGSAGGSATITISLGPPEYIEVYDPANGVKRKFPASVPKEEVAAEIEKEYPDTPVVFTTDASAGGSAGGS [r12_423_JUSTAS]", "folding stability dG unfold": "-0.172 ± 0.32"}, {"sequence": "SAGGSAGGSAGGSMPKPKVIKVPVDPNVSKEEVAKEVLPKTGLNVESIEESEDVLYVLNSAGGSAGGSAGGS [r4_469_JUSTAS]", "folding stability dG unfold": "< -1"}, {"sequence": "SAGGSAGGSAGGKVLVRFPTGEVPEVVEIDVPFEAGDPEKAKEIADELLAKGAEEVVLEDSAGGSAGGSAGG [r11_196_TrMRF]", "folding stability dG unfold": "-0.328 ± 0.35"}, {"sequence": "SAGGSAGGSAGMTLEEKLKEAEEKHKKEGGPATITITDPTATGVSKTYTVTIENEGLKVESAGGSAGGSAGG [r11_954_JUSTAS]", "folding stability dG unfold": "-0.132 ± 0.36"}, {"sequence": "SAGGSAGGSAGGGMKVVIPKEEAEKKGLTEAKLKEIEEKLKAKGIKVEIKLISSEEPELLSAGGSAGGSAGG [r7_972_JUSTAS]", "folding stability dG unfold": "< -1"}, {"sequence": "SAGGSAGGSAGGDPLERKPVKVLVLHPDKPIELEVDVGLSPEEIARPFAEKGYEVRFEGSAGGSAGGSAGGS [r10_540_TrMRF]", "folding stability dG unfold": "-0.836 ± 0.39"}, {"sequence": "SAGMKELVLVERDAPVLGVYLDPETGRPRLEPRPVPVVVVVEVEPDSEAARELAEKLAPEDVRVEVLPASAG [r5_468_TrMRF]", "folding stability dG unfold": "-0.483 ± 0.24"}, {"sequence": "SAGGSAGGSAGGDSSAPKPVIVEEGSVILEVKRDPKHGVITILSRNPLGGELITYEIPRSAGGSAGGSAGGS [r10_427_JUSTAS]", "folding stability dG unfold": "< -1"}, {"sequence": "SAASTLKATLRPPDGSTLDVTVLDPGEGWLLQLGDGSERVSPEELEALLANDPSLVVEELTELPLEELSSAG [r14_336_JUSTAS]", "folding stability dG unfold": "-0.654 ± 0.2"}, {"sequence": "SAGGSAGGSAGGPPEITVEHHPPNGYMTLTIPDGRPIEIPMPPNRPPSDVKNRAKDLIKSAGGSAGGSAGGS [r10_33_TrROS]", "folding stability dG unfold": "< -1"}, {"sequence": "SAGGSAGGSAGMKTYTVPLPGGDPALIEQTAQDIVEKIPGLEDHEVKVDAGDDGTLTIVESAGGSAGGSAGG [r17_324_JUSTAS]", "folding stability dG unfold": "< -1"}, {"sequence": "SAGGGVTREIPITIKTSEGEPEETITVPAKSREEVDPETGRPVSSVDPGSIEEIKAKLPSSVTSVVLSAGGS [r16_522_JUSTAS]", "folding stability dG unfold": "< -1"}, {"sequence": "SAGGWIPIDEIKDLLDNGKPMPLEQIVKEIQKDFGYPVTIEEDDDSFWIHVENPNTGEPREEIEIDPSAGGS [r8_105_TrROS]", "folding stability dG unfold": "-0.392 ± 0.38"}, {"sequence": "SAGGSAGGSGKTIIIPLPNGNVIKVEVEEGSVKITYPKPKKELIKVENPKNALKNIKTYSYKGSAGGSAGGS [r12_32_TrMRF]", "folding stability dG unfold": "< -1"}, {"sequence": "SAGGSAGGSAGGGKDVPVIAVPAGDEEAAEEFARRLVAELERRTGKPAGDIPVDFVEVESAGGSAGGSAGGS [r10_1216_TrMRF]", "folding stability dG unfold": "-0.886 ± 0.84"}, {"sequence": "SAGGSAGGSAHTIEDPDNNKKIEVHPPPNGNYMVEIERPDNGEKKTIMMPPDDVEEALNQISAGGSAGGSAG [r3_162_TrROS]", "folding stability dG unfold": "< -1"}, {"sequence": "SAGGSAGGSAGGETVVEEDPAAGTTVVTYHEPLPTPSTRENVTTLTHDPSSSAATTTESSAGGSAGGSAGGS [r10_1041_JUSTAS]", "folding stability dG unfold": "< -1"}, {"sequence": "SAGGIKLPPGQEIEGKIQYPFPDGMFMTSEQPIRIPPVPPPPPEVEVHLPDGERKPVRSPEEADDAASAGGS [r16_580_TrROS]", "folding stability dG unfold": "-0.511 ± 0.26"}, {"sequence": "SAGGSAGGDPSRLPVITPETFNVPVPAPGGVNETVTVTVIKLPGGETIVTTTYPDGKTTTELIPSAGGSAGG [r6_111_JUSTAS]", "folding stability dG unfold": "0.182 ± 0.15"}, {"sequence": "SAGGSMIEVEIENPDPSVSPEEIAERVIRELTPDGGPLQPLEIKPTLVGDKPVYKIKIYIPDPELIKESAGG [r13_979_JUSTAS]", "folding stability dG unfold": "< -1"}, {"sequence": "SAGGSAGGKIEIFDQDQHDEMNQENGMPPKNYWMIRINGKPTAILPPDKPLTPNTIKNLIKEGLSAGGSAGG [r6_243_TrROS]", "folding stability dG unfold": "-0.799 ± 0.8"}, {"sequence": "SAGGSAGGSAGGPKTVTISGGPLEDLLEKLDNMPPDDTITIHHPGGYYTVKVENDKIKIVSAGGSAGGSAGG [r7_560_TrROS]", "folding stability dG unfold": "-0.69 ± 0.22"}, {"sequence": "SAGGNWIMIELPLDDLKNAKPNQKVKIEWPDGKPFEVNAHRHDGRYPVLVRNPENPDKWEPIGEIEIESAGG [r13_745_TrROS]", "folding stability dG unfold": "< -1"}, {"sequence": "SAAVSFTPDGRPRRLEPVPPVPPVIEIPVPLNIPESDPAKKEALRKEIKEKIMKELGLPESVPVKVILLSAG [r14_453_JUSTAS]", "folding stability dG unfold": "-0.158 ± 0.55"}, {"sequence": "SAGGSAGGSAGGMEKKLTLVTTRTPEGGSETILVDDSDPEKVRAELEEAGWTITETTSSSAGGSAGGSAGGS [r10_882_JUSTAS]", "folding stability dG unfold": "< -1"}, {"sequence": "SAGGSAGGMKAKVLVLDPETGKEYDSLEELKAEVEGPVLIRNSTGELILLHRDDLKYFPLPLSLSAGGSAGG [r6_684_TrMRF]", "folding stability dG unfold": "0.0344 ± 0.2"}, {"sequence": "SAGGSAGGSAGGRMYPITFPGKTIEDIEEEIEELPPNYQINIDHDENGHMKVWIMPPDDFSAGGSAGGSAGG [r7_662_TrROS]", "folding stability dG unfold": "< -1"}, {"sequence": "SAGGSAGGSMERLENGIERIRLLVRFPERDEVRLIEIPLDNVTPEEIIERARELGAEEIELLESAGGSAGGS [r12_792_TrMRF]", "folding stability dG unfold": "-0.545 ± 0.22"}]}]}
